{"source": "the DeepSol protein solubility set", "data": [{"assay": "soluble on expression in E. coli; label from the status in PepcDB or PDB records", "values": [{"sequence": "KVTNRHFQDVPALEVVTTTHLDQPLPLVIFYHGWQSNKELVLTQARKLARKNLRVVLPDAMNHGERHQIVSQIPSFTFWNSIQGNLGEFELIVNYYRERKLILNEQIGVGGYSMGGMTTGALLTHHPEIKAATIIMGTPNLNAYAQLVRKHAQAHAYYIPSDLALLTSWLDHYDLNLQPETINHRPLLFWHGTEDERIPYSQSRNFFDRVHTAPYAEQVAFITGYQAKHLVKVPLMNKVANFFDYYLN", "soluble on expression in E. coli": "not soluble"}, {"sequence": "AHHHHHHGSNLRNKLKLYVITDRRLKPEVESVREALEGGATAIQMRIKNAPTREMYEIGKTLRQLTREYDALFFVDDRVDVALAVDADGVQLGPEDMPIEVAKEIAPNLIIGASVYSLEEALEAEKKGADYLGAGSVFPTKTKEDARVIGLEGLRKIVESVKIPVVAIGGINKDNAREVLKTGVDGIAVISAVMGAEDVRKATEELRKIVEEVLG", "soluble on expression in E. coli": "soluble"}, {"sequence": "ADINHGENVFTANCSACHAGGNNVIMPEKTLQKDALSTNQMNSVGAITYQVTNGKNAMPAFGGRLSDDDIEDVASFVLSQSEKSWN", "soluble on expression in E. coli": "soluble"}, {"sequence": "MASFITRAERSGNIFSRVTGLIRAGQLNWADRPLWYDVYVSSPPLTPPDWNVKLAKYDEPIRSIFYEEDVLRAKFYKTYRSTAGIQVDSSRTSVSQQFINEYKLVKSENAEATDDQLFEMTQKRLNENGIVLK", "soluble on expression in E. coli": "not soluble"}, {"sequence": "SMAPKPGLDFSPFDFAHFGFPSDNSGKERSFQAKPSPKLGRHVYSRPKVDIQKICIGNKNIFTVSDLKPDTQYYFDVFVVNINSNMSTAYVGTFARTKEEAKQKTVELKDGKITDVFVKRKGAKFLRFAPVSSHQKVTFFIHSCLDAVQIQVRRDGKLLLSQNVEGIQQFQLRGKPKAKYLVRLKGNKKGASMLKILATTRPTKQSFPSLPEDTRIKAFDKLRTCSSATVAWLGTQERNKFCIYKKEVDDNYNEDQKKREQNQCLGPDIRKKSEKVLCKYFHSQNLQKAVTTETIKGLQPGKSYLLDVYVIGHGGHSVKYQSKVVKTRKFC", "soluble on expression in E. coli": "soluble"}, {"sequence": "MGSDKIHHHHHHMLNSLSIFEQAIRALPIDRSLTRQDLFIDGFLLQQEQELSVYYSPIGEYINRSAKIVFIGITPGFEQMRLAYEEAADAFHHGATIEETSKLVKYSASFAGPMRRNLTAMLDELELHRLLNIASTATLFHTNQELLHTTSILRHPVFYRDKNYTGHQPKIDRTPLLQHYAYEHFAAELNQLPDPVILVPFGRVVESTVRTLLHQGRIKKHTVLFGFPHPSGANGHRKRQFEENKDYLMKQLNSYFNT", "soluble on expression in E. coli": "not soluble"}, {"sequence": "MEKPVICRIKEIIEESPTVKTFVVDKDFDFKPGQFAMLWLPGVDEKPFGFSSKNSFSVARVGEFTKKMHELKEGDIIGVRGPYGTYFEPIGDKVLAVAGGIGAAPIITAVEEFSKQGIEITTILGARTKEELLFLDRFEKVSRLEICTDDGSFGFKGFTTEKMKEVLKEEKFDLIITCGPEIMMKKVVEIANEYNIPVQVSMERYMKCGIGICGQCCVDDEGLCVCKDGPVFWGDKLKFIREFGKYKRDASGKKIYY", "soluble on expression in E. coli": "not soluble"}, {"sequence": "SAPAQEHPEATVLFSDIVGFTEIASRSSPLEVCSLLDELYQRFDAAIEEYPQLYKVETIGDAYMVVCNVTVPCDDHADVLLEFALRMHEEASRVASSLGEPVRIRVGMHSGPVVAGVVGRKMPRFCLFGDTVNTASRMESHGEAGQIHISEACYCCLRSKERFEIRERGNITVKGKGTMRTYLLSPLERT", "soluble on expression in E. coli": "soluble"}, {"sequence": "MSSQIPFTVDHVGSFLRPETIKKARKKVQAGALSQAELRLIEDEEIKALVAKQKAGGLRGITDGEFRRGFWHIDFLEGLNGVTGYIPETGYNQTFHGKAAPAYNIRVVDKISFPTQHPFLEDFSFLKEVVEVGDGTVAKATIPSPTMILRQEILSNDGTSRIQTIYPEIGAFYKDLAQTYKDAIAAFYERGCRYLQFDDTNWAFLADQTKQEELRAKGIQPEEIAQVCTTIINEALAGKPEDLTVTTHICRGNHASSWLFSGGYEPIAKELFATNYDGFFLEYDSDRAGDFSPLRHWQNNGSKVVLGLVTSKFPELEETEQVKARIEEAQQFVPLENLSISPQCGFASTEEGNRLTEKEQWRKVQLLQEIAREVWLEHHHHHH", "soluble on expression in E. coli": "soluble"}, {"sequence": "MGSDKIHHHHHHMRPRILLYTGKGGVGKTSIAAATGALLSSKGHKTLIISTDPAHSLGDAFGMEIGHSIKQLADNLYGQEVSVVQSINEHWGELKDYLRSLFLSQGLDPVSADEIATLPGFEEASELLYLRNYYYDEEYDTIIMDSAPTGAALQLLSFPEVMTWYMDKLFPISRKTARVARPLLKPFVDIPLPEDAVFENIDLLYRQLTDIRKILTNNDVTSIRLVTNPDNMSYSETKRAYTYLLLYGYPVDAVIINKILSDETGDFFEKMRGSQKDIITEMENSFVDIKIFKARLLQEEPIGIKKLIELGKLIYGDEDPYKVFYKGTPIKYTKNGDRYILKIKMPFAEKEKLNLFNHGGELTIEIANWKRVFYLPESISDKRPVSAEYSNGYLNVILE", "soluble on expression in E. coli": "not soluble"}, {"sequence": "MNVLSPHIALYRLFDVADEIDLGRLSTPRLRLSRARLGAVRFENPPGEMELGVRNVEGLSGLLTARLYEFGVVSLSFRIHLGERVPWEAFLEKGLRIPELPFWEGFFLAELAALEPHLRGALLRPEEKRLSEEFVVYHALGLEGEKAFRPSVDLTPLWMGAEEEFAPEVRREVERYRYSYSTEDLALLGFDRVLILDSEGIWDVADLVEFVHAQLLELSYYDRVLTEELELVPQVLRHRGLWGYGRLQRLRRRLMARHAEIADVKARMEGALRITEDLFYAKIYRAALELYGAYELEKSVEEKLRVLEATYEMVTEEVAHLRTQAVEVAILALIAFEVVRALH", "soluble on expression in E. coli": "soluble"}, {"sequence": "KVQKIIVSEAGASVYSASELAAKEFPNMDVSLRGAVSIARRLQDPLAELVKIDPKSIGVGQYQHDVSQSMLVKRLDAIVEDCVNAVGVDVNTASAALLTRVAGLSSTIAQNIVDFRDENGRFEARTTLKKVPRLGPKAFEQCAGFLRIMDGKNPLDASAVHPEAYPVVKAIAEKNRKDIKALIGDSTFLKGLHAVDYTDEHFG", "soluble on expression in E. coli": "not soluble"}, {"sequence": "MSVIIVGGGMAGATLALAISRLSHGALPVHLIEATAPESHAHPGFDGRAIALAAGTCQQLARIGVWQSLADCATAITTVHVSDRGHAGFVTLAAEDYQLAALGQVVELHNVGQRLFALLRKAPGVMLHCPDRVANVARTQSHVEVTLESGEMLTGRVLIAADGTHSALATACGVDWQQEPYEQLAVIANVATSVAHEGRAFERFTQHGPLAMLPMSDGRCSLVWCHPLERREEVLSWSDEKFCRELQSAFGWRLGQITHAGKRSAYPLALTRAARPITHRTVLVGNAAQTLHPIAGQGFNLGMRDVMSLAETLTQAHERGEDIGDYGILCRYQQRRQSDREATIGVTDSLVHLFANRWAPLVVGRNIGLMTMELFTPARDVLAQRTLGWVARLEHHHHHH", "soluble on expression in E. coli": "soluble"}, {"sequence": "MGSDKIHHHHHHMKFIVTPDIFEKLPDMYVGVVVAKGIDNSKNYPEIDRLLNRYMKYSQQKFDGINVKQNDEIIPYREAFRKIGINPNRYPCSAEALFKRLSKGKNLPHINPLVNLNNAISLKYTVLMGTHSLDGVQDDIIMRLTKSGDNFVPLGKDEVEEPDEGEVVYAVGSDVCIRRWTWRQSEHSKITDQTHDVFFPIDGFVDVNRDAVDKAREDLVGKSKEIFGVETQVGYVDKNHPEFEWE", "soluble on expression in E. coli": "not soluble"}, {"sequence": "MGHHHHHHSHMGFYLGITALKSIGNNKNNNIDNENNHQAKILTFPVSFTCRTFLPARGDILQGTVKKVLWNGAFIRSGPLRYAYLSLLKMPHYHYVHSPLSEDEKPHFQKDDLSKIAVGVVVRFQVLAVRFKERPHKRRNDYYVLATLEGNGSFGP", "soluble on expression in E. coli": "soluble"}, {"sequence": "MKVTITANAPLSAGAMAVKKEAENANVFAALLAHKQQELLPAGAETSLFQEESSKNKEPDWQNGGMETGAAGQPSSAEKKPAQIESLWLAPSIMTALAVAPISAAAGAPLLEADQQAEGKTSDHWTFPFVGAMNGEETIAAQPAADEAGFERAFITDGRKSGHIDAESGSPSSGKTGMFPPLLSDGDQRPFHEQGGNRTVVALPNEASPVRPAGEKDVSLPKRGDKGHGGEATPSFTTPPALLSPSSSSVGLVGEMPASAGGSVADQVAHALRSARWMKLPNGVMQLVIRLHPEHLGTVTVKMTEEGGKLAAKLLVANDAVKELLYAHLPQLAQQLDASSITVEKWTVWSDYDSPAMPPYSGNRQGGQQQGESRQKQKREPSSSFPFALDGIEADA", "soluble on expression in E. coli": "not soluble"}, {"sequence": "RRSRKLERKKIVLGVTGSIAAVETVKLARELVRRGADVTAVMSRAARKIIHPYALEFATGKRVVTEITGSIEHVNLLGEYGDADLFLIAPCTANTISKIAQGIDDTPVTTFATTALGSGKPIIIVPAMHEAMMRNKAVLENIQRLIDMGIEFVQPRIEEGKAKFPSTETICLHVERELYPKEMKGKRVV", "soluble on expression in E. coli": "not soluble"}, {"sequence": "MSASAFNFAFRRFWNSETGPKTVHFWAPTLKWGLVFAGLNDIKRPVEKVSGAQNLSLLATALIWTRWSFVIKPKNYLLASVNFFLGCTAGYHLTRIANFRIRNGDSFKQVIHYIIKGETPAAVAAKQTASTSMNKGVIGTNPPITH", "soluble on expression in E. coli": "soluble"}, {"sequence": "SLTKPIGEKADPERLAAFLNEKGGNALSHLGFLGDKRFYFSSDGNALLLFGKIARRLVVLGDPSGQRESFPLVLEEFLNEAHQKGFSVLFYQIEREDMALYHDFGYNFFKLGEEAYVDLNTFTLTGKKKAGLRAINNRFEREEYTFHVDHPPFSDAFLEELKQISDEWLGSKKEKGFSLGFFDPSYLQKAPIAYMKNAEGEIVAFANVMPMYQEGEISVDLMRYRGDAPNGIMDALFIRMFLWAKEEGCTSFNMGMAPLANVGTAFTSFWSERFAAVIFNNVRYMYSFSGLRAFKEKYKPEWRGKYLAYRKNRSLSVTMFLVTRLIGKSKKDSV", "soluble on expression in E. coli": "soluble"}, {"sequence": "SNAMSKKAELAELVKELAVVHGKVTLSSGKEADYYVDLRRATLHARASRLIGELLRELTADWDYVAVGGLTLGADPVATSVMHADGREIHAFVVRKEAKKHGMQRRIEGPDVVGKKVLVVEDTTTTGNSPLTAVKALREAGAEVVGVATVVDRATGAADVIAAEGLEYRYILGLEDLGLA", "soluble on expression in E. coli": "soluble"}, {"sequence": "GPGSMEDRNSVASSVFFTGVSLVIEKEKLRQHFESVGHVVSFTIFGPAPGKDFRYGIVGYMDEKTAEEAIRRLDGTTFGERAMRVTAARSTTLHGPLRAGPGGGGSGPADHSTFRKRPREPYPSLNSSRPPYGPGMGRGGGMRAPIARVSFSAQQQQKQEQSQQPTTDKAGRETMQFPRFYTDPILGRDGSLVLDALRGMATEEAYSAVEQLRVLALERPNEAKRLLHNNPALKSAVIMTLQHAGRIPLGSLPRDAYQSRRAAEAEAELAQPLPPQQPTPSQQSALPTPQQTPPQPPAESLKPAKKEARSAAKSGEARGARKRDTATGSASASAAVPSESQTSLVRPSTPMTEAERDEVLELIQSMSEEDVERVLTMSARDFAQVPDPAQRKQLEVLQKRLLVMSRDL", "soluble on expression in E. coli": "soluble"}, {"sequence": "DGTADKTKGEVSNDKVSTDEKHVVSLDPNDQSKGKGVVIDNVANGDISATSTDAINGSQLYAVAKGVTNLAGQVNNLEGKVNKVGKRADAGTASALAASQLPQATMPGKSMVAIAGSSYQGQNGLAIGVSRISDNGKVIIRLSGTTNSQGKTGVAAGVGYQW", "soluble on expression in E. coli": "soluble"}, {"sequence": "KVLGDGSYLFEGKTSLSDVRHYLDLPENAFGELGDEVDTLSGLFLEIKQELPHVGDTAVYEPFRFQVTQMDKRRIIEIKIFPFERTWEVE", "soluble on expression in E. coli": "not soluble"}]}]}
